Measured values as given in US20220403048A1 (CANCER RESEARCH TECHNOLOGY, published 2022).
Read-outs that look alike come from different tables or passages of the source.

T1: biotinylated recombinant cynomolgus monkey trimeric ARG2 enzyme (Avi-cynoARG2-His10) (cynomolgus monkey, UniProt P78540 23-354 (human entry), biotinylated)
T1 construct: also called cynomolgus ARG2
T1 chain: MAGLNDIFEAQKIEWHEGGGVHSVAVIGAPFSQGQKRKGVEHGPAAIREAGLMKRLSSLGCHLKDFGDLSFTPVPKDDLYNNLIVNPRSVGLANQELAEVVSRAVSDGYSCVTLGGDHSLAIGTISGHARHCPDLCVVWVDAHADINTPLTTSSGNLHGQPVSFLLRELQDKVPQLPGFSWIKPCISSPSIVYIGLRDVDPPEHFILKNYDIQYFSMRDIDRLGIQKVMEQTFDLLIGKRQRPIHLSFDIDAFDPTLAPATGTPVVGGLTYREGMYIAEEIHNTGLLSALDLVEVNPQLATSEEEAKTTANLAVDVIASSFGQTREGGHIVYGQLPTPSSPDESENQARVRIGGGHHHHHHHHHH

T2: biotinylated recombinant human trimeric ARG2 enzyme (Avi-huARG2-His10) (human, UniProt P78540 23-354, biotinylated)
T2 construct: also called avi-Arg2-His10; bio-ARG2
T2 chain: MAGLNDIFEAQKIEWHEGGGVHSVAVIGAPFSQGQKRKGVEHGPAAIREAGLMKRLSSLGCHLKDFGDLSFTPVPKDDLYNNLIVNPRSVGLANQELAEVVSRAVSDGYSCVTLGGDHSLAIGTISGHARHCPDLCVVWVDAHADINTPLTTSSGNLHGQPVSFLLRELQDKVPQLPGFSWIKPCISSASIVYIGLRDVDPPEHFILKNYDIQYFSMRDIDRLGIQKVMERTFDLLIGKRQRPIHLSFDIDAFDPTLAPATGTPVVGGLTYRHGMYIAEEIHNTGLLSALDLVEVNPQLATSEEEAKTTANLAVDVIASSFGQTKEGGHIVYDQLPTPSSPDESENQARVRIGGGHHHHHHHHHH

T3: biotinylated recombinant human trimeric ARG1 enzyme (Avi-huARG1-His10) (human, UniProt P05089 1-322, biotinylated in HTRF and streptavidin BLI assays)
T3 construct: also called Human ARG1; recombinant ARG1
T3 sequence: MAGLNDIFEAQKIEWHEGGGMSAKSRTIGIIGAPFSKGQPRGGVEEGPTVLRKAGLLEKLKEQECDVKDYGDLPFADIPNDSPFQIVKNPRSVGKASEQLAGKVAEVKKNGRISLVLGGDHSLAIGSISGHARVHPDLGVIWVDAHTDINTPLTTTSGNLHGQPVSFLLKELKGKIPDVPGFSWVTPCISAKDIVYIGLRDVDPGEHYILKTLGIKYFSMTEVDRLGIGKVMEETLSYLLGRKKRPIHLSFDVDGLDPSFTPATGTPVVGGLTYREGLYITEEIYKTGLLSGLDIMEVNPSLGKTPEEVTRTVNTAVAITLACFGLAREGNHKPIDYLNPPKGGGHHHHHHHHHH

B1: C0021061 Fab (Fab, V domains shown)
VH: EVQLLESGGGLVQPGGSLRLSCAASGFTFSSYAMSWVRQAPGKGLEWVSAKPTDAGSTYYADSVKGRFTISRDNSKNTLYLQMNSLRAEDTAVYYCARLRADLGLYMDLWGRGTLVTVSS
VL: QSVLTQPPSVSAAPGQKVTISCSGSSSNIGNHYVSWYQQLPGTAPKLLIYNTVYPKSGIPDRFSGSKSGTSATLGITGLQTGDEADYYCGTWDSSLSALVFGGGTKLTVL
notes: Human Fab
B2: C0021022 Fab (Fab, V domains shown)
VH: EVQLLESGGGLVQPGGSLRLSCAASGFTFSSYAMSWVRQAPGKGPEWVSAISGFSPYYADSVKGRFTISRDNSKNTLYLQMNSLRAEDTAVYYCARLRADLGLYMDLWGRGTLVTVSS
VL: QSVLTQPPSVSAAPGQKVTISCSGSSSNIGNHYVSWYQQLPGTAPKLLIYDNSERPSGIPDRFSGSKSGTSATLGITGLQTGDEADYYCGTWDSSLSALVFGGGTKLTVL
notes: Human Fab
B3: C0021128 Fab (Fab, V domains shown)
VH: EVQLLESGGGLVQPGGSLRLSCAASGFTFQYEVAAWVRQAPGKGLEWVSAISGPIPKGYYADSVKGRFTISRDNSKNTLYLQMNSLRAEDTAVYYCARLRADLGLYMDLWGRGTLVTVSS
VL: QSVLTQPPSVSAAPGQKVTISCSGSSSNIGNHYVSWYQQLPGTAPKLLIYDNAIESSGIPDRFSGSKSGTSATLGITGLQTGDGADYYCGTWDSNLSALVFGGGTKLTVL
notes: Human Fab
B4: C0021139 Fab (Fab, V domains shown)
VH: EVQLLESGGGLVQPGGSLRLSCAASGFTFQYDYQVWVRQAPGKGLEWVSAISGSGGSTYYADSVKGRFTISRDNSKNTLYLQMNSLRAEDTAVYYCARLRADLGLYMDLWGRGTLVTVSS
VL: QSVLTQPPSVSAAPGQKVTISCSGSSSNIGNHYVSWYQQLPGTAPKLLIYDNSERTSGIPDRFSGSKSGTSATLGITGLQTGDEADYYCGTWDELTSNLVFGGGTKLTVL
notes: Human Fab; also called LO C0021139 Fab
B5: C0021092 Fab (Fab, V domains shown)
VH: EVQLLESGGGLVQPGGSLRLSCAASGFTFSRYAMSWVRQAPGKGLEWVSAHTHSPGSTYYADSVKGRFTISRDNSKNTLYLQMNSLRAEDTAVYYCARLRADLGLYMDLWGRGTLVTVSS
VL: QSVLTQPPSVSAAPGQKVTISCSGSSSNIGNHYVSWYQQLPGTAPKLLIYNSVARPSGIPDRFSGSKSGTSATLGITGLQTGDEADYYCGTWDSSLSALVFGGGTKLTVL
notes: Human Fab
B6: C0021155 Fab (Fab, V domains shown)
VH: EVQLLESGGGLVQPGGSLRLSCEASGFTFRYDYHVWVRQAPGKGLEWVSAISGSGGSTYYADPVKGRFTISRDNSKNTLYLQMNSLRAEDTAVYYCARLRADLGLYMDLWGRGTLVTVSS
VL: RSVLTQPPSVSAAPGQKVTISCSGSSSNIGNHYVSWYQQLPGTAPKLLIYDTTVLSSGIPDRFSGSKSGTSATLGITGLQTGDEADYYCGTWDELTSNLVFGGGTRLTVL
notes: Human Fab
B7: C0021065 Fab (Fab, V domains shown)
VH: EVQLLESGGGLVQPGGSLRLSCAASGFTFSSYAMSWVRQAPGKGPEWVSAISGFSPYYADSVKGRFTISRDNSRNTLYLQMNSLRAEDTAVYYCARLRADLGLYMDLWGRGTLVTVSS
VL: QSVLTQPPSVSAAPGQKVTISCSGSSSNIGNHYVSWYQQLPGTAPKLLIYDTDHMASGIPDRFSGSKSGTSATLGITGLQTGDEADYYCGTWDSSLSALVFGGGTKLTVL
notes: Human Fab
B8: C0021144 Fab (Fab, V domains shown)
VH: EVQLLESGGGLVQPGGSLRLSCAASGFTFRYDYHVWVRQAPGKGLEWVSAISGSGGSTYYADSVKGRFTISRDNSKNTLYLQMNSLRAEDTAVYYCARLRADLGLYMDLWGRGTLVTVSS
VL: QSVLTQPPSVSAAPGQKVTVSCSGSSSNIGNHHVSWYQQLPGTAPKLLIYDTTVLSSGVPDRFSGSKSGTSATLGITGLQTGDEADYYCGTWDELTSNLVFGGGTKLTVL
notes: Human Fab
B9: C0021133 Fab (Fab, V domains shown)
VH: EVQLLESGGGLVQPGGSLRLSCAASGFTFRYDHHVWVRQAPGKGLEWVSAISGSGGSTYYADSVKGRFTISRDNSKNTLYLQMNSLRAEDTAVYYCARLRADLGLYMDLWGRGTLVTVSS
VL: QSVLTQPPSVSAAPGQKVTVSCSGSSSNIGNHYVSWYQQLPGTAPKLLIYDTTVLSSGIPDRFSGSKSGTSATLGITGLQTGDEADYYCGTWDELTSNLVFGGGTKLTVL
notes: Human Fab

Experiments:
[1] = molecular target: T1, biotinylated recombinant cynomolgus …; assay: BLI (OctetRED), biotinylated cyno ARG2 on streptavidin, Fab as analyte
Method: (§1) An Octet Kinetics Buffer (PBS containing 0.01% BSA and 0.002% Tween20) is typically used as the diluent buffer for the analyte samples and as the flow buffer during the dissociation phase. The experimental data is recorded over time as shift in interference pattern (nm) over time, which is directly proportional to the optical thickness at the biosensor tip, which in turn is an approximate measure of the mass of analyte bound. The proprietary Octet Data Analysis software package can then be used to process data and fit binding models to the data sets. Returned association (kₐ, M⁻¹ s⁻¹) and dissociation (kd, s⁻¹) rate constants allow calculation of dissociation (KD, M) affinity constants.
(§2) Typically, an analyte titration range of 1.8 to 120 nM was used.

[2] = molecular target: T2, biotinylated recombinant human trimeric …; assay: BLI (OctetRED), biotinylated ARG2 on streptavidin, Fab as analyte
Method: as §1, §2

[3] = molecular target: T3, biotinylated recombinant human trimeric …; assay: BLI (OctetRED), His-tagged ligand on anti-His surface
Method: The binding of affinity-matured antibodies to human ARG1 was also tested on the OctetRED system using a screening assay which stably captures […] as the ligand on an anti-His surface. The Fabs were typically tested in an analyte range of 1.8 to 120 nM, with an association time of 5 minutes and a dissociation time of 10 minutes. Sensors were regenerated using 10 mM glycine pH 1.5 after each cycle.

[4] = molecular target: T3, biotinylated recombinant human trimeric …; assay: as above; remark: listed apart in the source
[5] = molecular target: T2, biotinylated recombinant human trimeric …; assay: BLI (OctetRED) extended assay, bio-ARG2 on streptavidin, Fab as analyte, 1:1 fit
Method: The affinities of the second-generation antibodies to human ARG2 were measured on the OctetRED system. A screening assay which stably captures His-tagged ARG2 as the ligand on an anti-His surface was utilised to screen the second-generation candidates as Fabs at an analyte range of 1.8 to 120 nM, with an association time of 5 minutes and a dissociation time of 10 minutes. Sensors were regenerated using 10 mM glycine pH 1.5 after each cycle. Based on this assay, six candidates with estimated affinities in the sub-nanomolar range were identified, and they were further profiled using an extended assay which is more suitable for antibodies of high affinities. In the extended assay, the association and dissociation times were extended to 10 and 40 minutes respectively, using a lower Fab analyte titration range of 0.47 to 30 nM, on a streptavidin surface which captures bio-ARG2 as the ligand. The sensorgrams were reference subtracted and fitted to the 1:1 binding model to estimate their binding affinities using the Octet analysis software.

Binder | Kd [1] | koff [1] | kon [1] | Kd [2] | koff [2] | kon [2] | binding result [3] | binding result [4] | Kd [5] | koff [5] | kon [5]
B1 | 0.953 nM | 0.000296 s⁻¹ | 310000 M⁻¹ s⁻¹ | 1.3 nM | 0.000351 s⁻¹ | 271000 M⁻¹ s⁻¹ | no binding (tested: 1.8 to 120 nM Fab) | – | – | – | –
B2 | 1.66 nM | 0.00117 s⁻¹ | 706000 M⁻¹ s⁻¹ | 2.73 nM | 0.00112 s⁻¹ | 412000 M⁻¹ s⁻¹ | no binding (tested: 1.8 to 120 nM Fab) | – | – | – | –
B3 | 1.77 nM | 0.000771 s⁻¹ | 437000 M⁻¹ s⁻¹ | 2.53 nM | 0.000674 s⁻¹ | 266000 M⁻¹ s⁻¹ | no binding (tested: 1.8 to 120 nM Fab) | – | – | – | –
B4 | 2.63 nM | 0.000724 s⁻¹ | 275000 M⁻¹ s⁻¹ | 4.41 nM | 0.000871 s⁻¹ | 198000 M⁻¹ s⁻¹ | no binding (tested: 1.8 to 120 nM Fab) | – | – | – | –
B5 | 2.05 nM | 0.000726 s⁻¹ | 354000 M⁻¹ s⁻¹ | 2.69 nM | 0.000755 s⁻¹ | 280000 M⁻¹ s⁻¹ | no binding (tested: 1.8 to 120 nM Fab) | – | – | – | –
B6 | – | – | – | – | – | – | – | no binding (tested: up to 120 nM Fab) | 0.358 nM | 5.67e-05 s⁻¹ | 159000 M⁻¹ s⁻¹
B7 | 1.27 nM | 0.000782 s⁻¹ | 617000 M⁻¹ s⁻¹ | 1.62 nM | 0.000665 s⁻¹ | 409000 M⁻¹ s⁻¹ | no binding (tested: 1.8 to 120 nM Fab) | – | – | – | –
B8 | – | – | – | – | – | – | – | no binding (tested: up to 120 nM Fab) | 0.338 nM | 6.59e-05 s⁻¹ | 195000 M⁻¹ s⁻¹
B9 | 1.67 nM | 0.000549 s⁻¹ | 328000 M⁻¹ s⁻¹ | 2.05 nM | 0.000449 s⁻¹ | 219000 M⁻¹ s⁻¹ | no binding (tested: 1.8 to 120 nM Fab) | – | – | – | –
